## GST fusion of the catalytic domain of the Xanthomonas campestris pathovar vesicatoria protease XopD (GST-XopD)
6xHis-hSUMO-1-eGFP
  activity level (grade): -
6xHis-AtSUMO1-eGFP
  activity level (grade): -
6xHis-hSUMO-3-eGFP
  activity level (grade): -
6xHis-T-SUMO-eGFP
  activity level (grade): +/-
6xHis-AtSUMO2-eGFP
  activity level (grade): +/-
6xHis-ySmt3-eGFP
  activity level (grade): +/-

— US20100021987
